{"source": "patent US20220195063A1", "about": "(BYONDIS B V, published 2022)", "binders": {"B1": {"name": "anti-SIRPα antibody 6 (antibody, human IgG1, kappa, L234A L235A, V domains shown)", "VH": "QSVEESGGRLVTPGTPLTLTCTVSGIDLSSYTMTWVRQAPGKGLEWIGIIYAGGSTAYASWAKGRFTISKTSTTVDLKITSPTTEDTATYFCARSSSDGYDYFNIWGPGTLVTVSL", "VL": "GVVMTQTPSSVSAAVGGTVTINCQASQSIGSWLAWYQQKPGQPPKLLIYQASKLASGVPSRFSGRGSGTHFTLTISDVQSDDAATYYCQQTVTAASNVDNAFGGGTEVVVKR", "notes": "Rabbit variable regions on human IgG1 LALA / kappa"}, "B2": {"name": "anti-SIRPα antibody 9 (antibody, human IgG1, kappa, L234A L235A, V domains shown)", "VH": "QSMEESGGRLVTPGTPLTLTCTASGFSLSNYGVSWVRQAPGKGLEWIGIIYGGSDITAYASWAKGRFTISKTSTTVDLTITSPTTEDTATYFCAKSYTNGMDYYNIWGPGTLVTVSL", "VL": "AFDLTQTPSSVEAPVGGTVIIKCQASQSISSYLAWYQQKPGQPPKLLIYSASTLASGVSSRFKGSGSETQFPLTISDLESADAATYYCQSYYGSRSNVFGGGTEVVVKR", "notes": "as for B1"}, "B3": {"name": "anti-SIRPα antibody 1 (antibody, human IgG1, kappa, L234A L235A, V domains shown)", "VH": "QSVEESGGRLVTPGTPLTLTCTVSGIDLSSYAMSWVRQAPGKGLEWIGIISSGGITYYASWAKGRFTISKTSTTVDLKIPSPTTEDTATYFCARSLWAASNYYMALWGPGTLVTVSS", "VL": "AIKMTQTPASVSAAVGGTVSINCQASEDIESYLAWYQQKPGQPPKLLIYRASTLASGVSSRFKGSGSGTQFTLTISDLESADAATYYCLGDYYSSSGDTGAFGGGTEVVVKR", "notes": "as for B1"}, "B4": {"name": "29AM4-5huIgG1LALA (antibody, V domains shown)", "VH": "EVQLVESGGGLVQPGGSLRLSCAASGFNISYYFIHWVRQAPGKGLEWVASVYSSFGYTYYADSVKGRFTISADTSKNTAYLQMNSLRAEDTAVYYCARFTFPGLFDGFFGAYLGSLDYWGQGTLVTVSS", "VL": "DIQMTQSPSSLSASVGDRVTITCRASQSVSSAVAWYQQKPGKAPKLLIYSASSLYSGVPSRFSGSRSGTDFTLTISSLQPEDFATYYCQQAVNWVGALVTFGQGTKVEIKR", "notes": "HAVT20 leader left out"}, "B5": {"name": "anti-SIRPα antibody 15 humanized (antibody, human IgG1, kappa, L234A L235A, V domains shown)", "VH": "RSVEESGGRLVTPGTPLTLTCTVSGFSLSSHGISWVRQAPGKGLEYIGTIGTGVITYFASWAKGRFTGSKTSTTVDLKITSPTTEDTATYFCARGSAWNDPFDPWGPGTLVTVSS", "VL": "ELVMTQSPSSLSASVGDRVTITCQASQSVYGNNDLAWYQQKPGEAPKLLIYLASTLATGVPSRFSGSGSGTDFTLTISGLQSEDFATYYCLGGGDDEADNVFGQGTKVEIKR"}, "B6": {"name": "anti-SIRPα antibody 16 humanized (antibody, human IgG1, kappa, L234A L235A, V domains shown)", "VH": "B5 VH", "VL": "B5 VL with E1D, L2I, V3E, L11V, I21L, E44Q, G79S, S82P, Q104G"}}, "note": "Numbering of substitutions follows the chain as printed.", "data": [{"molecular_target": "human SIRPαBIT (huSIRPαBIT), protein antigen (human) (UniProt P78324)", "sequence (P78324 31-370)": "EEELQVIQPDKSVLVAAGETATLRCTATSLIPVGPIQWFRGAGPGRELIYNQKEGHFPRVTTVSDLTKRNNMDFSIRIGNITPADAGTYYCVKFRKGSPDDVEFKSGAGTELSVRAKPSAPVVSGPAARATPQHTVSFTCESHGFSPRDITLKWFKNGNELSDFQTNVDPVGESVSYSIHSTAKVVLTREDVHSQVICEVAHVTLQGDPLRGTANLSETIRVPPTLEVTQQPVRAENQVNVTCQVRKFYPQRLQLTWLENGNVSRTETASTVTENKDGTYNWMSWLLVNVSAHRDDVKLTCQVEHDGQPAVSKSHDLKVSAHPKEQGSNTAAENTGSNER", "assay": "ELISA, antigen coated", "units": {"EC50": "µg/mL"}, "values": [{"binder": "B1", "EC50": 0.02}, {"binder": "B2", "EC50": 0.026}, {"binder": "B3", "EC50": 0.021}, {"binder": "B4", "EC50": 0.009}]}, {"molecular_target": "human SIRPβ1v1 (huSIRPβ1v1) (human) (UniProt O00241)", "sequence (O00241 30-371)": "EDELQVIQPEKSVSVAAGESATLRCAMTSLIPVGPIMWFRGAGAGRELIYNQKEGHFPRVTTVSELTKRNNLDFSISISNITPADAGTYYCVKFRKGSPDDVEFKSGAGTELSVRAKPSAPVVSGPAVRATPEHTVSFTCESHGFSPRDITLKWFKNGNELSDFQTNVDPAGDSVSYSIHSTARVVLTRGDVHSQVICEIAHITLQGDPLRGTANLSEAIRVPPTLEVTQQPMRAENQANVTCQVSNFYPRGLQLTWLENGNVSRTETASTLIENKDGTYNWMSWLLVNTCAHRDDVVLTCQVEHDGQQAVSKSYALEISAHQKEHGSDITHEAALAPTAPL", "assay": "ELISA, antigen coated", "units": {"EC50": "µg/mL"}, "values": [{"binder": "B1", "EC50": "> 100"}, {"binder": "B2", "EC50": "> 100"}, {"binder": "B4", "EC50": 0.013}]}, {"molecular_target": "human SIRPαBIT expressed on cells (human) (UniProt P78324)", "sequence (P78324 31-504)": "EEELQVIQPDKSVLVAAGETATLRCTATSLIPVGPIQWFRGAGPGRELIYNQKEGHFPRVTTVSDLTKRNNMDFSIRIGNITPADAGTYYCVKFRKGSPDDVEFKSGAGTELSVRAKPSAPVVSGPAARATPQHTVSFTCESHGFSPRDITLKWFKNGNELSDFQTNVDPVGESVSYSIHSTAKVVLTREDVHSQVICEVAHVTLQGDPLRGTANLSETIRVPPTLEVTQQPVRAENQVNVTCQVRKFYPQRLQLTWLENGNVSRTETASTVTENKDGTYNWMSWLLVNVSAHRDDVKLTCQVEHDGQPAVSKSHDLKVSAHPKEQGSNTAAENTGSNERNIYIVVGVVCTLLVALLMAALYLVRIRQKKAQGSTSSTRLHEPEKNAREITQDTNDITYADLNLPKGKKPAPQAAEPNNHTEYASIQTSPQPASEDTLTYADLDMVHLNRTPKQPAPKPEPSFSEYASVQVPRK", "assay": "flow cytometry, U937 cells", "units": {"EC50": "µg/mL"}, "values": [{"binder": "B5", "EC50": 0.16}, {"binder": "B6", "EC50": 0.23}, {"binder": "B2", "EC50": 0.11}, {"binder": "B4", "EC50": 0.25}]}, {"molecular_target": "T1, human SIRPα1 (huSIRPα1), protein antigen (human, UniProt P78324 31-370, limits assumed, biotinylated in the SPR assay)", "T1 construct": "Coated on the plate in ELISA, biotinylated and captured in SPR; also called v2", "T1 sequence (P78324 other isoform, or with tags, fused parts or gaps limits assumed)": "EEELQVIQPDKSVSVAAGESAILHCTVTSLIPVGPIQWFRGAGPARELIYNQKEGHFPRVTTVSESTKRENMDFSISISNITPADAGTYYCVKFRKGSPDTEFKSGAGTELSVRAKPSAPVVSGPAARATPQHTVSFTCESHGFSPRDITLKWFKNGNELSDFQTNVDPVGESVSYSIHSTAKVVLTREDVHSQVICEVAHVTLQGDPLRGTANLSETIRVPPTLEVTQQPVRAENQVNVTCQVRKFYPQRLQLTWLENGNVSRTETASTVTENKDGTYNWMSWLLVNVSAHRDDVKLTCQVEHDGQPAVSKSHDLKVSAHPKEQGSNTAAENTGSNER", "assay": "ELISA, antigen coated", "method": "(§1) ELISA assay: Solutions of huSIRPα₁, huSIRPαBIT, huSIRPβ₁ᵥ₁, huSIRPβ₁ᵥ₂, huSIRPγ and cySIRPα in phosphate buffered saline (PBS) were each added to a multiple well black polystyrene plate for ELISA and allowed to adhere for 1 h at RT. Unbound protein was removed with three washing steps using standard washing buffer. Subsequently, blocking buffer was added to the wells. After 1 h incubation at RT, the wells were washed three times with standard washing buffer. The antibodies in buffer at various concentrations were added to the wells and incubated at RT for 1 h. Unbound antibodies were removed with three washing steps using standard washing buffer. Goat anti human IgG (Fab′)₂:horse radish peroxidase (HRP) in buffer was added to the wells and incubated at RT for 1 h. 3,3′,5,5′-Tetramethylbenzidine (TMB) was added and after sufficient colour development HCl was added. Absorbance was read at 450 nm/620 nm.", "units": {"EC50": "µg/mL"}, "values": [{"binder": "B1", "EC50": 0.021}, {"binder": "B2", "EC50": 0.023}, {"binder": "B3", "EC50": 0.039}, {"binder": "B4", "EC50": 0.009}]}, {"molecular_target": "T2, human SIRPβ1v2 (huSIRPβ1v2) (human, UniProt Q5TFQ8 30-371)", "T2 construct": "Coated on the plate in ELISA; Only the Ensembl protein number is printed; also called huSIRPß1v2", "T2 sequence (Q5TFQ8 30-371 limits assumed)": "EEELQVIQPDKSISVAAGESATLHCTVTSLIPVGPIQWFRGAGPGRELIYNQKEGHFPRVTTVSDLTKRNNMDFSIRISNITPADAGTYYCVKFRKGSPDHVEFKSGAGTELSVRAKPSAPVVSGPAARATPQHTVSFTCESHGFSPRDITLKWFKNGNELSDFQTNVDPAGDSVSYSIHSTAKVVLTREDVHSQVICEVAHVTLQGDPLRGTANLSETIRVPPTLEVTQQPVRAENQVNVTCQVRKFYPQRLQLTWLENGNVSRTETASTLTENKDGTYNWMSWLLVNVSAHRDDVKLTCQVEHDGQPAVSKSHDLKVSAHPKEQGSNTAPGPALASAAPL", "assay": "ELISA, antigen coated", "method": "as §1", "units": {"EC50": "µg/mL"}, "values": [{"binder": "B1", "EC50": 0.024}, {"binder": "B2", "EC50": 0.047}, {"binder": "B3", "EC50": 0.058}, {"binder": "B4", "EC50": 0.017}]}, {"molecular_target": "T3, human SIRPγ (huSIRPγ) (human, UniProt Q9P1W8 29-360, limits assumed, biotinylated in the SPR assay)", "T3 construct": "Coated on the plate in ELISA, biotinylated and captured in SPR", "T3 sequence (Q9P1W8 29-360 limits assumed)": "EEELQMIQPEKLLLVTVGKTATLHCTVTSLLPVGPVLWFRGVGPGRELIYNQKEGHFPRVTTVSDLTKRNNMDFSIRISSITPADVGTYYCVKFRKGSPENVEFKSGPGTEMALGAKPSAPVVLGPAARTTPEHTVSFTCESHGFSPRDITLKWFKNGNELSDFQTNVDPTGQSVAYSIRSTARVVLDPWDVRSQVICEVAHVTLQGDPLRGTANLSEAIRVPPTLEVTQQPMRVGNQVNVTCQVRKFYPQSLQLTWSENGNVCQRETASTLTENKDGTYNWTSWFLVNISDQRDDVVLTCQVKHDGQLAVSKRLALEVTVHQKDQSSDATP", "assay": "ELISA, antigen coated", "method": "as §1", "units": {"EC50": "µg/mL"}, "values": [{"binder": "B1", "EC50": "> 100"}, {"binder": "B2", "EC50": "> 100"}, {"binder": "B3", "EC50": 0.043}, {"binder": "B4", "EC50": 0.034}]}, {"molecular_target": "T4, cynomolgus SIRPα (cySIRPα), protein antigen (cynomolgus monkey, UniProt A0A2K5VYQ9 31-369)", "T4 construct": "Coated on the plate in ELISA", "T4 sequence": "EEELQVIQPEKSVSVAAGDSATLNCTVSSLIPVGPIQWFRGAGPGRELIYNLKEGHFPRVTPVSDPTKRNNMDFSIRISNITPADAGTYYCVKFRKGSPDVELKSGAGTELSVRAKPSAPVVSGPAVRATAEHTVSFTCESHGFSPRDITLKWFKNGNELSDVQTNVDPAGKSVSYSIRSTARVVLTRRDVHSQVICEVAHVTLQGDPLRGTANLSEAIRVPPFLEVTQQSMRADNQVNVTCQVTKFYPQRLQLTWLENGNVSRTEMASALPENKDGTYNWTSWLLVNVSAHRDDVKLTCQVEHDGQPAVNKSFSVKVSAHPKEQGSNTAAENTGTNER", "assay": "ELISA, antigen coated", "method": "as §1", "units": {"EC50": "µg/mL"}, "values": [{"binder": "B1", "EC50": 0.033}, {"binder": "B2", "EC50": 0.03}, {"binder": "B3", "EC50": 0.305}, {"binder": "B4", "EC50": 0.011}]}]}
